# Experimental data reported in PMC5615036, “Crystal structure of an ASCH protein from Zymomonas mobilis and its ribonuclease activity specific for single-stranded RNA”.
# T1: ZmASCH wild-type (Zymomonas mobilis ZM4, UniProt Q5NP14 1-148)
# T1 sequence: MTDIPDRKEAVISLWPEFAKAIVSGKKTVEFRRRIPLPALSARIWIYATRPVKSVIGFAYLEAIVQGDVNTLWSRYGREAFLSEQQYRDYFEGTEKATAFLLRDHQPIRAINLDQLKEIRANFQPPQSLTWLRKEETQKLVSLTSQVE
# Molecular target: T1, ZmASCH wild-type
# Assay: EMSA; 10 mM Mg2+; bound, not degraded; EMSA: 20 mM Tris-HCl pH 7.5, 10 mM Mg acetate, 300 mM KCl, 100 ng/uL BSA, 100 ng/uL heparin, 30 min at 310 K; nuclease assay: 20 mM Tris-HCl pH 8.0, 100 mM KCl, 100 ng/uL BSA, with or without 10 mM divalent metal, 310 K
# Conditions: protein: recombinant; tags: N-terminal His6; label: 5'-32P; single strand
binder,measurement,value
ATCAGCTCGTCACAACATTACTTCATCAAC (ssDNA) [ssDNA(30mer)],binding result,binds
